According to patent US20240293512A1 (HANMI PHARM, published 2024):
Bridge positions count the residues as written; N and C are the ends. Square brackets hold non-standard residues; d marks the D form. Ends that are not written are not given here. * marks the point of attachment. Acetyl(2-(4-imidazolyl)) = O=C(Cc1c[nH]cn1)*; Aib = CC(C)(N)C(=O)O

T1: human GIP receptor (human, UniProt P48546 22-466)
T1 sequence (looked up): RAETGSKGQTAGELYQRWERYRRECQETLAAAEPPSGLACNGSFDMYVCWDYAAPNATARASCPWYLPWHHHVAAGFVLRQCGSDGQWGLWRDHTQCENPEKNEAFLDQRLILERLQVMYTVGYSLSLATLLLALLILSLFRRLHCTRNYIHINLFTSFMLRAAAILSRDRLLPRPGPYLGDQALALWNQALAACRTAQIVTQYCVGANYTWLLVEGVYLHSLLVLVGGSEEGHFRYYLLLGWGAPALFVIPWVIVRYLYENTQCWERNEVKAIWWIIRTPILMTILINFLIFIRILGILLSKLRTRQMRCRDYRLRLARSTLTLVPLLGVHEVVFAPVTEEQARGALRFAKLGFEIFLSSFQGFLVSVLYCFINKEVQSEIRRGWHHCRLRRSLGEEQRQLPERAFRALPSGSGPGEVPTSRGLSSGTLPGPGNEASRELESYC


Tests used:
Experiment in all cases: cell-based or functional assay
[1] = target: T1, human GIP receptor
[2] = target: human GLP-1 receptor (human, UniProt P43220 24-463)
[3] = target: human GCG receptor (human, UniProt P47871 26-477)
human GCG receptor, sequence (P47871 26-477): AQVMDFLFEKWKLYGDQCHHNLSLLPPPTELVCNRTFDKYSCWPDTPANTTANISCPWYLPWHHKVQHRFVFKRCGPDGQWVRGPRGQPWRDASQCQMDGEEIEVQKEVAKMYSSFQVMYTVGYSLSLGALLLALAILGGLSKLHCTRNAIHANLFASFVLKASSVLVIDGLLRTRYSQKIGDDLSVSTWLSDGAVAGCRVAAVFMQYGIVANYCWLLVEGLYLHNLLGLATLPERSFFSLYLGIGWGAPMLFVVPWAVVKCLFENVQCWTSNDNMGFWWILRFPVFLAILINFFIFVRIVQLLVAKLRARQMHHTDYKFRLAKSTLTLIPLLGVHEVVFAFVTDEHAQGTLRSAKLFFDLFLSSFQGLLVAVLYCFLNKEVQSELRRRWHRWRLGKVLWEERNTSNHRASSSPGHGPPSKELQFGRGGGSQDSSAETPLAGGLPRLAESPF

Binder	In vitro activity compared with native peptide (%) vs GIP (cAMP EC50) [1] [%]	In vitro activity compared with native peptide (%) vs GLP-1 (cAMP EC50) [2] [%]	In vitro activity compared with native peptide (%) vs Glucagon (cAMP EC50) [3] [%]
H[Aib]QGTFTSDYSKYLDEKAAKEFVQWLLNTC (bridge 16-20) [triple agonist of SEQ ID NO: 29]	< 0.1	38.5	6
H[Aib]QGTFTSDYSKYLDEKACKDFVQWLLDGGPSSGAPPPS (bridge 16-20) [triple agonist of SEQ ID NO: 32]	8.8	151	1.7
H[Aib]QGTFTSDCSKYLDERAAQDFVQWLLDGGPSSGAPPPS [triple agonist of SEQ ID NO: 25]	< 0.1	82.6	0.1
[Acetyl(2-(4-imidazolyl))]GQGTFTSDLSKQMDSERAREFIEWLKNTGPSSGAPPPSHG [triple agonist of SEQ ID NO: 18]	< 0.1	< 0.1	< 0.1
Y[Aib]QGTFTSDYSKYLDECRAKEFVQWLKNGGPSSGAPPPS (bridge 16-20) [triple agonist of SEQ ID NO: 24]	< 0.1	41.2	9.3
[Acetyl(2-(4-imidazolyl))]GQGTFTSDLSIQYEEEAQQDFVEWLKDTGPSSGAPPPSHG [triple agonist of SEQ ID NO: 20]	< 0.1	< 0.1	< 0.1
H[Aib]QGTFTSDYSIAMDEIHQKDFVNWLLAQKC (bridge 16-20) [triple agonist of SEQ ID NO: 33]	10.4	24.5	< 0.1
H[Aib]QGTFTSDCSKYLDSRAAQDFVQWLLDGGPSSGAPPPS [triple agonist of SEQ ID NO: 26]	< 0.1	64.5	0.2
Y[Aib]QGTFTSDYSKYLDECRAKEFVQWLLDHHPSSGQPPPS (bridge 16-20) [triple agonist of SEQ ID NO: 21]	22.7	17.8	267
[Acetyl(2-(4-imidazolyl))]GQGTFTSDLSIQYDSEHQRDFIEWLKDTGPSSGAPPPSHG [triple agonist of SEQ ID NO: 19]	< 0.1	< 0.1	< 0.1
Y[Aib]QGTFTSDYSKCLDEKRAKEFVQWLLDHHPSSGQPPPS (bridge 16-20) [triple agonist of SEQ ID NO: 22]	59.7	20.1	140
H[Aib]QGTFTSDYSKYLDEKAQKEFVQWLLDTC (bridge 16-20) [triple agonist of SEQ ID NO: 30]	0.8	142	0.7
H[Aib]QGTFTSDYSKYLDEKACKEFVQWLLAQ (bridge 16-20) [triple agonist of SEQ ID NO: 31]	2.4	135	2.2
Y[Aib]QGTFTSDYSKYLDECRAKEFVQWLLAQKGKKNDWKHNIT (bridge 16-20) [triple agonist of SEQ ID NO: 23]	< 0.1	4.01	9.3
H[Aib]QGTFTSDYSKYLDERACQDFVQWLLDQGGPSSGAPPPS [triple agonist of SEQ ID NO: 27]	0.9	83.1	0.8
[Acetyl(2-(4-imidazolyl))]GQGTFTSDLSKQMDEERAREFIEWLLAQKPSSGAPPPSHG [triple agonist of SEQ ID NO: 17]	< 0.1	0.2	< 0.1
H[Aib]QGTFTSDVSSYLLGQAAKQFIAWLVKGGGPSSGAPPPSC [triple agonist of SEQ ID NO: 3]	< 0.1	1.8	< 0.1
H[Aib]QGTFTSDYSKYLDEKRAQEFVCWLLAQKGKKNDWKHNIT [triple agonist of SEQ ID NO: 28]	< 0.1	17.2	1.6
